The values that follow come from patent US20070202552A1 (Genentech, published 2007).

The chains are these.
B1: Clone G37 (SX-surface), purified Fab (Fab, V domains shown)
VH: EVQLVESGGGLVQPGGSLRLSCAASGFSIWWSWIHWVRQAPGKGLEWVASISPSSGWTSYADSVKGRFTISADTSKNTAYLQMNSLRAEDTAVYYCARWWSSAMDYWGQGTLVTVSS
VL: DIQMTQSPSSLSASVGDRVTITCRASQDVNTAVAWYQQKPGKAPKLLIYSASSLYSGVPSRFSGSRSGTDFTLTISSLQPEDFATYYCQQWWWWPSTFGQGTKVEIK
B2: G35 (Fab, V domains shown)
VH: B1 VH with W30S, S52W, M104L
VL: B1 VL
B3: G40 (Fab, V domains shown)
VH: B1 VH with W100S, S102W, A103G, M104L
VL: B1 VL with W92S
B4: G36 (Fab, V domains shown)
VH: B1 VH with W100S, M104F
VL: B1 VL
B5: B27 (Fab, V domains shown)
VH: EVQLVESGGGLVQPGGSLRLSCAASGFSISYSSIHWVRQAPGKGLEWVASIYPYYGYTSYADSVKGRFTISADTSKNTAYLQMNSLRAEDTAVYYCARFFFFSSSFFGFDYWGQGTLVTVSS
VL: B1 VL with W91Y, W92S, W93Y, W94Y, S96Y
notes: also called SXH3-B27 Fab-phage
B6: Clone YSGR-A-42, purified soluble Fab (Fab, V domains shown)
VH: EVQLVESGGGLVQPGGSLRLSCAASGFYISSSSIHWVRQAPGKGLEWVAYIYPSSGYTSYADSVKGRFTISADTSKNTAYLQMNSLRAEDTAVYYCARGYYYSYYSGYALDYWGQGTLVTVSS
VL: B1 VL with W91S, W92Y, W93S, W94S
notes: also called clone 42 (YSGR-A); clone 42
B7: Clone B11 (SXH3), purified soluble Fab (Fab, V domains shown)
VH: B1 VH with W30Y, W31S, W33Y, S52Y, S54Y, W57Y, M104F
VL: B1 VL with W91S, W92Y, W93Y, W94Y
notes: Tryptophan-containing clone
B8: Clone G54 (SX-surface), purified soluble Fab (Fab, V domains shown)
VH: B1 VH with W30S, W31S, W33Y, S52Y, S54Y, W57Y, W99Y, W100Y, S102Y, M104L
VL: B1 VL with W91S, W92Y, W93Y, W94Y
notes: Tyrosine-containing clone

Positions count from the first letter of the chain named.

The first test addresses human DR5 (construct not stated) (human) (UniProt O14763). Kind of test: specificity phage ELISA.
As for B1, the ELISA signal at 450 nm stood at 0.21.

For a further test, the target named is human IGF-1 (human) (UniProt P05019). As to the kind of experiment: specificity phage ELISA.
For the molecule B2, the ELISA signal at 450 nm is 0.25.
On the same count and under the same terms, the same measure for B3: 0.85; for B1: 0.32; for B4: 0.3.

In another test the target is human VEGF (human) (UniProt P15692). Kind of test: specificity phage ELISA.
In turn, B2 yielded an ELISA signal at 450 nm of 0.31.
Same read-out and setting: the same measure for B3: 0.31; for B1: 0.23.
Take B4: the ELISA signal at 450 nm stood at 0.38.

A further test deals with human insulin (human) (UniProt P01308). As to the kind of experiment: specificity phage ELISA.
The molecule B2 gave an ELISA signal at 450 nm of 0.37.
The same measure, in the same setting: for B3 the value was 2.64.
Still for that read-out and setting: for B1 the value was 0.45.
On the same count and under the same terms, for B4 the value was 0.29.

Another test has as its target neutravidin (UniProt P02701). Kind of test: specificity phage ELISA.
On to B2, for which the ELISA signal at 450 nm was 0.29.
The same measure, in the same setting: the same measure for B3: 0.45.
On the same count and under the same terms, the same measure for B1: 0.32; for B4: 0.26.

The next test addresses T1, human HER-2 extracellular domain (HER-2 ECD) (human, UniProt P04626 23-646).
T1 construct: range 23-646; also called erbB2; HER2 protein
Kind of test: Fab-phage binding affinity.
The molecule B5 registered an IC50 of 71700 pM.
The same measure, in the same setting: the same measure for B6: 320 pM.
Same read-out and setting: the same measure for B1: 310 pM; for B7: 850 pM.
Still for that read-out and setting: the same measure for B8: 2440 pM.

A further test concerns the target T1, human HER-2 extracellular domain (HER-2 …). Kind of test: competitive Fab-phage ELISA.
The molecule B6 showed an IC50 of 320 pM. This counts as sub-nanomolar.

A further test has the same target. As to the kind of experiment: competitive Fab-phage ELISA. This is another data set of the same source.
With B5, the IC50 came to 71700 pM. This counts as double-digit nanomolar.
Still for that read-out and setting: for B7 the value was 850 pM.

Another test shares this target. Kind of test: competitive Fab-phage ELISA. The source holds these as a separate data set.
For the molecule B2, the IC50 was 650 pM.
Still for that read-out and setting: the same measure for B3: 1800 pM; for B1: 310 pM; for B4: 1200 pM.
The same measure, in the same setting: the same measure for B8: 2440 pM.

The target is the same in another test. As to the kind of experiment: SPR (BIAcore A100), HER2 amine-coupled to the chip, soluble Fab injected, 25 C.
In turn, B6 had a Kd of 570 pM, a dissociation rate constant (koff) of 0.0015 s⁻¹ and a kon of 2.7e+06 M⁻¹ s⁻¹.
As for B7, the dissociation constant Kd was determined as 890 pM, the koff was found to be 0.0017 s⁻¹ and the kon was found to be 1.9e+06 M⁻¹ s⁻¹.
The corresponding values for B8 are 11000 pM, 0.0022 s⁻¹ and 200000 M⁻¹ s⁻¹.
